Laboratory results: the supplement of paper PMC10567573

B1: RTP4 (parent)
chain: TYWEHWTSQGQVRMRLFGQRCQKC
B2: KCNK9 (parent)
chain: CFITLTTIGFGDYVALQTKGALQK

Variants of: B1
Assay: protein stability index of a GFP-peptide fusion (GPS, HEK-293T) (PSI 1-6); higher = more stable
Details: c terminus: a fixed tail appended
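Further: lentivirally expressed fusions sorted by FACS into six bins by GFP to DsRed ratio, PSI derived from sequencing read proportions per bin multiplied by bin number.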

Variant	protein stability index
TYWIHWTSQGQVRMRLFGQRCQKC [E4I]	1.77
TDWEHWTSQGQVRMRLFGQRCQKC [Y2D]	1.66
QYWEHWTSQGQVRMRLFGQRCQKC [T1Q]	2.15
PYWEHWTSQGQVRMRLFGQRCQKC [T1P]	2.27
TYWEHWTNQGQVRMRLFGQRCQKC [S8N]	1.32
TYWEHWTQQGQVRMRLFGQRCQKC [S8Q]	1.77
TYWEHWTSQGQVRMRLDGQRCQKC [F17D]	2.01
TYWEHPTSQGQVRMRLFGQRCQKC [W6P]	2.07
TYWEHKTSQGQVRMRLFGQRCQKC [W6K]	1.6
TYWEHYTSQGQVRMRLFGQRCQKC [W6Y]	2.05
TYWEHWTSQGQVRMRLFGQRRQKC [C21R]	2.4
TYWEHWTSQGQVRMRLFGQRFQKC [C21F]	1.39
TYWEHWTSQGQVRMRLFGFRCQKC [Q19F]	1.66
TYFEHWTSQGQVRMRLFGQRCQKC [W3F]	1.75
TYMEHWTSQGQVRMRLFGQRCQKC [W3M]	2.28
TYWEHWTSQGQVRLRLFGQRCQKC [M14L]	1.39
TYWEHWTSQGQVRDRLFGQRCQKC [M14D]	2.05
TYWEHWTSQGRVRMRLFGQRCQKC [Q11R]	2.6

Variant	protein stability index
TYWEHWTSQGQVRMRLFDQRCQKC [G18D]	2.04
TYWEHWTSQGQVRMRLFIQRCQKC [G18I]	2.39
TYWEHWTSNGQVRMRLFGQRCQKC [Q9N]	2.08
TYWEHWTSHGQVRMRLFGQRCQKC [Q9H]	1.18
TYWEHWPSQGQVRMRLFGQRCQKC [T7P]	2.27
TYWEHWTSQPQVRMRLFGQRCQKC [G10P]	1.91
TYWEHWTSQLQVRMRLFGQRCQKC [G10L]	1.89
TYWEHWTSQGQVRMRLFGQRCRKC [Q22R]	1.92
TYWEHWTSQGQVRMRLFGQRCEKC [Q22E]	1.09
TYWEHWTSQGQVRMRLFGQRCQDC [K23D]	1.79
TYWEHWTSQGQVRMRLFGQRCQHC [K23H]	1.1
TYWEHWTSQGQVRMRLFGQNCQKC [R20N]	1.34
TYWEHWTSQGQVRMRLFGQSCQKC [R20S]	1.65
TYWEHWTSQGQVRMRLFGQQCQKC [R20Q]	1.24
TYWEHWTSQGQVRMVLFGQRCQKC [R15V]	1.64
TYWEHWTSQGQVRMSLFGQRCQKC [R15S]	1.21
TYWEHWTSQGQVRMHLFGQRCQKC [R15H]	1.85
TYWEHWTSQGQVRMGLFGQRCQKC [R15G]	1.6

Variants of: B2
Assay: as above
Details: c terminus: a fixed tail appended

Variant	protein stability index
EFITLTTIGFGDYVALQTKGALQK [C1E]	2.02
HFITLTTIGFGDYVALQTKGALQK [C1H]	3.02
TFITLTTIGFGDYVALQTKGALQK [C1T]	3.37
SFITLTTIGFGDYVALQTKGALQK [C1S]	2.4
PFITLTTIGFGDYVALQTKGALQK [C1P]	1.66
QFITLTTIGFGDYVALQTKGALQK [C1Q]	2.53
MFITLTTIGFGDYVALQTKGALQK [C1M]	3.33
NFITLTTIGFGDYVALQTKGALQK [C1N]	2.2
DFITLTTIGFGDYVALQTKGALQK [C1D]	1.57
LFITLTTIGFGDYVALQTKGALQK [C1L]	4.01
GFITLTTIGFGDYVALQTKGALQK [C1G]	1.26
AFITLTTIGFGDYVALQTKGALQK [C1A]	2.27
RFITLTTIGFGDYVALQTKGALQK [C1R]	2.57
IFITLTTIGFGDYVALQTKGALQK [C1I]	3.52
WFITLTTIGFGDYVALQTKGALQK [C1W]	3.09
KFITLTTIGFGDYVALQTKGALQK [C1K]	2.05
CFITLDTIGFGDYVALQTKGALQK [T6D]	2.36
CFITLMTIGFGDYVALQTKGALQK [T6M]	4.77
CFITLLTIGFGDYVALQTKGALQK [T6L]	3.01
CFITLKTIGFGDYVALQTKGALQK [T6K]	2.11
CFITLQTIGFGDYVALQTKGALQK [T6Q]	1.51
CFITLGTIGFGDYVALQTKGALQK [T6G]	1.69
CFITLYTIGFGDYVALQTKGALQK [T6Y]	2.71
CFITLETIGFGDYVALQTKGALQK [T6E]	1.83
CFITLRTIGFGDYVALQTKGALQK [T6R]	2.85
CFITLPTIGFGDYVALQTKGALQK [T6P]	1.21

Variant	protein stability index
CFITLVTIGFGDYVALQTKGALQK [T6V]	3.1
CFITLNTIGFGDYVALQTKGALQK [T6N]	2.89
CFITLSTIGFGDYVALQTKGALQK [T6S]	3.54
CFITLHTIGFGDYVALQTKGALQK [T6H]	1.44
CFITLCTIGFGDYVALQTKGALQK [T6C]	3.41
CFITLITIGFGDYVALQTKGALQK [T6I]	2.13
CFITLFTIGFGDYVALQTKGALQK [T6F]	2.57
CFITLTTCGFGDYVALQTKGALQK [I8C]	2.37
CFITLTTEGFGDYVALQTKGALQK [I8E]	2.39
CFITLTTVGFGDYVALQTKGALQK [I8V]	3.42
CFITLTTQGFGDYVALQTKGALQK [I8Q]	3.37
CFITLTTYGFGDYVALQTKGALQK [I8Y]	1.78
CFITLTTLGFGDYVALQTKGALQK [I8L]	3.63
CFITLTTPGFGDYVALQTKGALQK [I8P]	2.39
CFITLTTFGFGDYVALQTKGALQK [I8F]	2.8
CFITLTTMGFGDYVALQTKGALQK [I8M]	2.03
CFITLTTGGFGDYVALQTKGALQK [I8G]	2.78
CFITLTTDGFGDYVALQTKGALQK [I8D]	2.14
CFITLTTKGFGDYVALQTKGALQK [I8K]	1.53
CFITLTTNGFGDYVALQTKGALQK [I8N]	2.27
CFITLTTRGFGDYVALQTKGALQK [I8R]	1.67
CFITLTTTGFGDYVALQTKGALQK [I8T]	3.29
CFITLTTSGFGDYVALQTKGALQK [I8S]	2.95
CFITLTTHGFGDYVALQTKGALQK [I8H]	3.24
CFITLTTAGFGDYVALQTKGALQK [I8A]	2.08
CFITLTTINFGDYVALQTKGALQK [G9N]	2.02

Variant	protein stability index
CFITLTTIIFGDYVALQTKGALQK [G9I]	2.7
CFITLTTIFFGDYVALQTKGALQK [G9F]	3.77
CFITLTTIAFGDYVALQTKGALQK [G9A]	3.95
CFITLTTILFGDYVALQTKGALQK [G9L]	3.46
CFITLTTIEFGDYVALQTKGALQK [G9E]	1.58
CFITLTTICFGDYVALQTKGALQK [G9C]	2.83
CFITLTTIDFGDYVALQTKGALQK [G9D]	2.33
CFITLTTIMFGDYVALQTKGALQK [G9M]	2.8
CFITLTTIHFGDYVALQTKGALQK [G9H]	2.51
CFITLTTIKFGDYVALQTKGALQK [G9K]	2.5
CFITLTTIPFGDYVALQTKGALQK [G9P]	1.99
CFKTLTTIGFGDYVALQTKGALQK [I3K]	2.06
CFATLTTIGFGDYVALQTKGALQK [I3A]	2.03
CFSTLTTIGFGDYVALQTKGALQK [I3S]	2.11
CFYTLTTIGFGDYVALQTKGALQK [I3Y]	2.82
CFHTLTTIGFGDYVALQTKGALQK [I3H]	1.82
CFETLTTIGFGDYVALQTKGALQK [I3E]	2.03
CFPTLTTIGFGDYVALQTKGALQK [I3P]	2.68
CFNTLTTIGFGDYVALQTKGALQK [I3N]	1.86
CFLTLTTIGFGDYVALQTKGALQK [I3L]	2.05
CFMTLTTIGFGDYVALQTKGALQK [I3M]	2.05
CFGTLTTIGFGDYVALQTKGALQK [I3G]	1.68
CFWTLTTIGFGDYVALQTKGALQK [I3W]	2.2
CFRTLTTIGFGDYVALQTKGALQK [I3R]	1.78
CFQTLTTIGFGDYVALQTKGALQK [I3Q]	2.13
CFCTLTTIGFGDYVALQTKGALQK [I3C]	2.68

Variant	protein stability index
CFFTLTTIGFGDYVALQTKGALQK [I3F]	1.52
CFTTLTTIGFGDYVALQTKGALQK [I3T]	1.87
CFDTLTTIGFGDYVALQTKGALQK [I3D]	2.82
CYITLTTIGFGDYVALQTKGALQK [F2Y]	1.79
CIITLTTIGFGDYVALQTKGALQK [F2I]	2.62
CHITLTTIGFGDYVALQTKGALQK [F2H]	2.03
CCITLTTIGFGDYVALQTKGALQK [F2C]	2.23
CPITLTTIGFGDYVALQTKGALQK [F2P]	2.5
CTITLTTIGFGDYVALQTKGALQK [F2T]	2.04
CKITLTTIGFGDYVALQTKGALQK [F2K]	2.4
CEITLTTIGFGDYVALQTKGALQK [F2E]	1.02
CRITLTTIGFGDYVALQTKGALQK [F2R]	2.18
CLITLTTIGFGDYVALQTKGALQK [F2L]	3.17
CMITLTTIGFGDYVALQTKGALQK [F2M]	1.43
CNITLTTIGFGDYVALQTKGALQK [F2N]	1.61
CGITLTTIGFGDYVALQTKGALQK [F2G]	2.02
CSITLTTIGFGDYVALQTKGALQK [F2S]	2.72
CVITLTTIGFGDYVALQTKGALQK [F2V]	2.51
CQITLTTIGFGDYVALQTKGALQK [F2Q]	1.82
CAITLTTIGFGDYVALQTKGALQK [F2A]	1.82
CDITLTTIGFGDYVALQTKGALQK [F2D]	1.99
CFITTTTIGFGDYVALQTKGALQK [L5T]	1.57
CFITITTIGFGDYVALQTKGALQK [L5I]	3.75
CFITETTIGFGDYVALQTKGALQK [L5E]	2.38
CFITVTTIGFGDYVALQTKGALQK [L5V]	2.34
CFITQTTIGFGDYVALQTKGALQK [L5Q]	2.07

Variant	protein stability index
CFITMTTIGFGDYVALQTKGALQK [L5M]	2.65
CFITFTTIGFGDYVALQTKGALQK [L5F]	3.73
CFITHTTIGFGDYVALQTKGALQK [L5H]	1.77
CFITCTTIGFGDYVALQTKGALQK [L5C]	3.26
CFITKTTIGFGDYVALQTKGALQK [L5K]	1.59
CFITNTTIGFGDYVALQTKGALQK [L5N]	2.12
CFITDTTIGFGDYVALQTKGALQK [L5D]	2.42
CFITSTTIGFGDYVALQTKGALQK [L5S]	1.6
CFITATTIGFGDYVALQTKGALQK [L5A]	1.85
CFITRTTIGFGDYVALQTKGALQK [L5R]	2.24
CFITGTTIGFGDYVALQTKGALQK [L5G]	2.48
CFITWTTIGFGDYVALQTKGALQK [L5W]	2.72
CFITPTTIGFGDYVALQTKGALQK [L5P]	2.17
CFITYTTIGFGDYVALQTKGALQK [L5Y]	3.03
CFIPLTTIGFGDYVALQTKGALQK [T4P]	2.13
CFIMLTTIGFGDYVALQTKGALQK [T4M]	3.53
CFIHLTTIGFGDYVALQTKGALQK [T4H]	2.23
CFIDLTTIGFGDYVALQTKGALQK [T4D]	2.54
CFINLTTIGFGDYVALQTKGALQK [T4N]	3.41
CFIELTTIGFGDYVALQTKGALQK [T4E]	2.07
CFIALTTIGFGDYVALQTKGALQK [T4A]	2.99
CFIKLTTIGFGDYVALQTKGALQK [T4K]	3.64
CFIFLTTIGFGDYVALQTKGALQK [T4F]	2.95
CFISLTTIGFGDYVALQTKGALQK [T4S]	3.03
CFICLTTIGFGDYVALQTKGALQK [T4C]	3.91
CFIVLTTIGFGDYVALQTKGALQK [T4V]	2.25

Variant	protein stability index
CFIWLTTIGFGDYVALQTKGALQK [T4W]	2.91
CFIQLTTIGFGDYVALQTKGALQK [T4Q]	1.99
CFIRLTTIGFGDYVALQTKGALQK [T4R]	2.99
CFIGLTTIGFGDYVALQTKGALQK [T4G]	2.63
CFIILTTIGFGDYVALQTKGALQK [T4I]	1.52
CFITLTYIGFGDYVALQTKGALQK [T7Y]	2.13
CFITLTWIGFGDYVALQTKGALQK [T7W]	4.77
CFITLTKIGFGDYVALQTKGALQK [T7K]	1.73
CFITLTNIGFGDYVALQTKGALQK [T7N]	1.78
CFITLTDIGFGDYVALQTKGALQK [T7D]	2.15
CFITLTVIGFGDYVALQTKGALQK [T7V]	2.77
CFITLTMIGFGDYVALQTKGALQK [T7M]	2.54
CFITLTPIGFGDYVALQTKGALQK [T7P]	2.32
CFITLTFIGFGDYVALQTKGALQK [T7F]	3.36
CFITLTRIGFGDYVALQTKGALQK [T7R]	2.44
CFITLTHIGFGDYVALQTKGALQK [T7H]	2.63
CFITLTLIGFGDYVALQTKGALQK [T7L]	3.38
CFITLTQIGFGDYVALQTKGALQK [T7Q]	2.52
CFITLTIIGFGDYVALQTKGALQK [T7I]	3.49
CFITLTAIGFGDYVALQTKGALQK [T7A]	4.42
CFITLTSIGFGDYVALQTKGALQK [T7S]	2.53
CFITLTEIGFGDYVALQTKGALQK [T7E]	2.94
